Source: patent US20130259876A1 (published 2013)

Molecular target: T1, nucleoprotein of influenza A virus (NP383-391) peptide on HLA-B*27:05 (human)
T1 peptide: SRYWAIRTR
Assay: activation reporter or marker

B1: GRb (TCR, V domains shown)
Valpha: AQTVTQSQPEMSVQEAETVTLSCTYDTSENNYYLFWYKQPPSRQMILVIRQEAYKQQNATENRFSVNFQKAAKSFSLKISDSQLGDAAMYFCAYFSGGSNYKLTFGKGTLLTVNP
Vbeta: DTEVTQTPKHLVMGMTNKKSLKCEQHMGHRAMYWYKQKAKKPPELMFVYSYEKLSINESVPSRFSPECPNSSLLNLHLHALQPEDSALYLCASSQEVLDTQYFGPGTRLTVL
Does B1 bind?
Result: recognises
